Measurements reported in the Immune Epitope Database (IEDB).

Key:
HLA-A*31:01 = assay: IEDB peptide-MHC binding, purified MHC/direct/fluorescence; filed as Kd, often an IC50 or EC50 that approximates it; ≥ and ≤ were set here for values at or beyond the usual limits of such assays; settings: source organism: Mycobacterium tuberculosis str. Haarlem
HLA-A*03:01 [1] = assay: as above; settings: source organism: Mycobacterium tuberculosis str. Haarlem
HLA-A*01:01 [2] = assay: as above; settings: source organism: Mycobacterium tuberculosis str. Haarlem
HLA-B*08:01 [3] = assay: as above; settings: source organism: Mycobacterium tuberculosis str. Haarlem
HLA-A*11:01 = assay: as above; settings: source organism: Mycobacterium tuberculosis str. Haarlem
HLA-A*69:01 = assay: as above
HLA-B*46:01 = assay: as above; settings: source organism: Mycobacterium tuberculosis str. Haarlem
HLA-B*44:02 = assay: as above; settings: source organism: Mycobacterium tuberculosis str. Haarlem
HLA-B*57:01 = assay: as above; settings: source organism: Mycobacterium tuberculosis str. Haarlem
HLA-B*27:05 = assay: as above; settings: source organism: Mycobacterium tuberculosis str. Haarlem
HLA-B*18:01 = assay: as above; settings: source organism: Mycobacterium tuberculosis str. Haarlem
HLA-B*40:01 = assay: as above; settings: source organism: Mycobacterium tuberculosis str. Haarlem
HLA-A*02:17 = assay: IEDB peptide-MHC binding, purified MHC/competitive/radioactivity; filed as Kd, often an IC50 or EC50 that approximates it; ≥ and ≤ were set here for values at or beyond the usual limits of such assays
HLA-A*02:01 [4] = assay: as above
HLA-A*02:06 = assay: as above
HLA-A*03:01 [5] = assay: IEDB peptide-MHC binding, purified MHC/competitive/fluorescence; filed as Kd, often an IC50 or EC50 that approximates it; ≥ and ≤ were set here for values at or beyond the usual limits of such assays
HLA-B*07:02 = assay: IEDB peptide-MHC binding, purified MHC/competitive/radioactivity; filed as Kd, often an IC50 or EC50 that approximates it; ≥ and ≤ were set here for values at or beyond the usual limits of such assays; settings: source organism: Vaccinia virus WR
HLA-B*53:01 = assay: as above
HLA-B*51:01 = assay: as above; settings: source organism: Vaccinia virus WR
HLA-B*54:01 = assay: as above; settings: source organism: Vaccinia virus WR
HLA-B*35:01 = assay: as above
HLA-A*02:03 = assay: as above
HLA-B*08:01 [6] = assay: as above; settings: source organism: Dengue virus 1 Brazil/97-11/1997
HLA-B*15:01 [7] = assay: as above
HLA-A*01:01 [8] = assay: as above; settings: source organism: Dengue virus 2 Jamaica/1409/1983
HLA-A*68:02 = assay: as above
HLA-A*24:02 = assay: as above; settings: source organism: Dengue virus 3 Sri Lanka/1266/2000
HLA-A*23:01 = assay: as above; settings: source organism: Dengue virus 3 Sri Lanka/1266/2000
HLA-B*15:01 [9] = assay: IEDB peptide-MHC binding, purified MHC/direct/fluorescence; filed as Kd, often an IC50 or EC50 that approximates it; ≥ and ≤ were set here for values at or beyond the usual limits of such assays; settings: source organism: Rift Valley fever virus
HLA-A*02:01 [10] = assay: as above; settings: source organism: Rift Valley fever virus
HLA-A*02:12 = assay: as above; settings: source organism: Rift Valley fever virus
[11] = source organism: Dengue virus 4 Philippines/H241/1956
[12] = source organism: Vaccinia virus WR
[13] = source organism: Dengue virus 3 China/80-2/1980
[14] = source organism: Dengue virus 3 Martinique/1243/1999
[15] = source organism: Dengue virus 2 Jamaica/1409/1983
[16] = source organism: Dengue virus 1 Singapore/S275/1990
[17] = source organism: Dengue virus 3 Sri Lanka/1266/2000
[18] = source organism: Dengue virus 2 Puerto Rico/PR159-S1/1969

Q: How did the Kd (HLA-A*31:01) turn out when IMANRAQVL was run?
A: ≥ 20000 nM

Q: What about the Kd (HLA-A*03:01 [1]) of the same sequence?
A: ≥ 20000 nM

Q: What about the Kd (HLA-A*01:01 [2]) of the same sequence?
A: ≥ 20000 nM

Q: And the Kd (HLA-B*08:01 [3])?
A: 332 nM

Q: What about the Kd (HLA-A*11:01) of the same sequence?
A: ≥ 20000 nM

Q: What about the Kd (HLA-A*69:01; source organism: Mycobacterium tuberculosis str. Haarlem) of the same sequence?
A: ≥ 20000 nM

Q: And the Kd (HLA-B*46:01)?
A: ≥ 20000 nM

Q: And the Kd (HLA-B*44:02)?
A: ≥ 20000 nM

Q: And the Kd (HLA-B*57:01)?
A: ≥ 20000 nM

Q: And the Kd (HLA-B*27:05)?
A: ≥ 20000 nM

Q: What about the Kd (HLA-B*18:01) of the same sequence?
A: ≥ 20000 nM

Q: What about the Kd (HLA-B*40:01) of the same sequence?
A: ≥ 20000 nM

Q: KLTDWDFVV was tested. Which Kd (HLA-A*02:17; [11]) did it give?
A: 744 nM

Q: And the Kd (HLA-A*02:01 [4]; source organism: dengue virus type 4)?
A: 61 nM

Q: What about the Kd (HLA-A*02:06; [11]) of the same sequence?
A: 2.33 nM

Q: KMARAGLGH was tested. Which Kd (HLA-A*03:01 [5]; source organism: Escherichia coli O157:H7 str. EDL933) did it give?
A: 25.1 nM

Q: What does the source list for KPEVRIPVDL?
A: Kd (HLA-B*07:02): 235 nM; Kd (HLA-B*53:01; [12]): ≥ 42400 nM; Kd (HLA-B*51:01): ≥ 69600 nM; Kd (HLA-B*54:01): 14300 nM; Kd (HLA-B*35:01; [12]): ≥ 69900 nM

Q: Which Kd (HLA-A*03:01 [5]; source organism: Vibrio cholerae 2740-80) does the source give for LLANILSEH here?
A: 525 nM

Q: Which results are given for LLLLGLMILL?
A: Kd (HLA-A*02:17; [13]): 94.9 nM; Kd (HLA-A*02:01 [4]; [13]): 11.7 nM; Kd (HLA-A*02:06; [14]): 21.5 nM

Q: For LLLLTLLATV, which Kd (HLA-A*02:17; [15]) is on record?
A: 54.4 nM

Q: And the Kd (HLA-A*02:01 [4]; [15])?
A: 64.6 nM

Q: What about the Kd (HLA-A*02:06; [15]) of the same sequence?
A: 23.8 nM

Q: What about the Kd (HLA-A*02:03; [15]) of the same sequence?
A: 1.37 nM

Q: For LLMLVTPSM, which Kd (HLA-A*02:17; [16]) is on record?
A: 24.3 nM

Q: And the Kd (HLA-B*08:01 [6])?
A: 1080 nM

Q: What about the Kd (HLA-B*15:01 [7]; source organism: Dengue virus 1 Brazil/97-11/1997) of the same sequence?
A: 2.26 nM

Q: What about the Kd (HLA-A*02:01 [4]; [16]) of the same sequence?
A: 7.86 nM

Q: Which results are given for LTAALLLLV?
A: Kd (HLA-A*02:17; [15]): ≥ 41700 nM; Kd (HLA-A*01:01 [8]): ≥ 42900 nM; Kd (HLA-A*02:01 [4]; [15]): 5760 nM; Kd (HLA-A*02:06; [15]): 3.73 nM; Kd (HLA-A*68:02; [15]): 5.36 nM

Q: What does the source list for MIAGVFFTFV?
A: Kd (HLA-A*02:17; [17]): 83 nM; Kd (HLA-A*02:01 [4]; [17]): 12.6 nM; Kd (HLA-A*02:06; [14]): 1.02 nM; Kd (HLA-A*68:02; [14]): 2.85 nM; Kd (HLA-A*02:03; [14]): ≤ 0.1 nM

Q: MMILPAALAF was tested. Which Kd (HLA-B*15:01 [7]; [17]) did it give?
A: 2.41 nM

Q: And the Kd (HLA-B*53:01; [17])?
A: 6480 nM

Q: And the Kd (HLA-A*24:02)?
A: 916 nM

Q: And the Kd (HLA-B*35:01; [17])?
A: 1490 nM

Q: And the Kd (HLA-A*23:01)?
A: 119 nM

Q: Which results are given for QVMLLVLCAV?
A: Kd (HLA-A*02:17; [13]): ≥ 35100 nM; Kd (HLA-A*02:01 [4]; [13]): 146 nM; Kd (HLA-A*02:06; [14]): 11.8 nM; Kd (HLA-A*02:03; [14]): 604 nM

Q: For SIILEFFLIV, which Kd (HLA-A*02:17; [15]) is on record?
A: 4020 nM

Q: What about the Kd (HLA-A*02:01 [4]; [15]) of the same sequence?
A: 29.9 nM

Q: And the Kd (HLA-A*02:06; [15])?
A: 43.7 nM

Q: Which Kd (HLA-A*02:17; [15]) does the source give for TAAAWYLWEV here?
A: 1020 nM

Q: What about the Kd (HLA-A*02:01 [4]; [15]) of the same sequence?
A: 10.3 nM

Q: What about the Kd (HLA-A*02:06; [15]) of the same sequence?
A: 1.28 nM

Q: What about the Kd (HLA-A*68:02; [15]) of the same sequence?
A: 4.09 nM

Q: How did the Kd (HLA-A*02:17; [18]) turn out when TLYAVATTFI was run?
A: 1300 nM

Q: And the Kd (HLA-A*02:01 [4]; [18])?
A: 86.3 nM

Q: What about the Kd (HLA-A*02:03; source organism: Dengue virus 2 Peru/IQT2913/1996) of the same sequence?
A: 13.7 nM

Q: What does the source list for TSMAMTCIAV?
A: Kd (HLA-A*02:17; [11]): 62.5 nM; Kd (HLA-A*02:01 [4]; [11]): 12.3 nM; Kd (HLA-A*02:06; [11]): 9.2 nM; Kd (HLA-A*68:02; [11]): 1.66 nM

Q: How did the Kd (HLA-A*02:17; [15]) turn out when VILAGPMPV was run?
A: 1360 nM

Q: What does the source list for VMAVGLVSI?
A: Kd (HLA-A*02:17; [13]): 3200 nM; Kd (HLA-A*02:03; [14]): 1.11 nM

Q: YLEFEALGFL was tested. Which Kd (HLA-A*02:17; [13]) did it give?
A: 45.3 nM

Q: And the Kd (HLA-A*02:01 [4]; [13])?
A: 77.1 nM

Q: Which results are given for YLKEACNHA?
A: Kd (HLA-B*15:01 [9]): 652 nM; Kd (HLA-A*02:01 [10]): 243 nM; Kd (HLA-A*69:01; source organism: Rift Valley fever virus): 473 nM; Kd (HLA-A*02:12): 52 nM
